The values below come from the supplement of paper PMC12042874.

± gives the uncertainty stated by the source.

This data set is described as follows: amyloid nucleation score (Sup35N fusion, yeast selection) (log enrichment); library NNK2; higher = more nucleation; inactive = no reads after selection. In a few lines:
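Three technical output replicates were used for random libraries. Psi-negative yeast expressing peptides of 20 random codons fused to Sup35N were induced with 100 μM copper sulfate for 24 hours and grown 7 days at 30°C on medium lacking adenine and uracil, and input and output plasmid inserts were Illumina-sequenced, excluding sequences with under 100 input reads. The nucleation score is the DiMSum log enrichment of output over input reads, centred on the mode score of non-aggregating sequences.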
The substance GCKNR displayed an amyloid nucleation score of 0.226 ± 0.51.

GCLLLPKGASHKIDYCGSDV displayed an amyloid nucleation score of 0.396 ± 0.35. For GCLTNTSSGMHWS the value was -0.208 ± 0.24. The substance GCRAVRTWEPIGVAGEYFGS displayed an amyloid nucleation score of 6.232 ± 0.037. Turning to GCRDMIWVGL, the amyloid nucleation score result is “inactive”. Under GCRRISFKSHISGVEGTNGG stands 1.2 ± 0.43; under GCTSTRRLVYC, -0.622 ± 0.29. GCVLAQLSSVGSGVLML gave an amyloid nucleation score of 3.14 ± 0.16. For GCWKD the value was 1.22 ± 0.36; for GDGHLVILLSHFTPWSLNTG, -0.209 ± 0.48. The substance GDKCGFCKNAGPGVKVS returned an amyloid nucleation score of -0.807 ± 0.79. Under GDKYCGLEPYGMGHNHMYAL stands 0.546 ± 0.56; under GDMLILSENDQRYCGPVDL, 0.107 ± 0.45; under GDNYIS, 0.782 ± 0.41. Under GDPLS stands 0.162 ± 0.28; under GDTPGSLYCNLISEGAI, 0.119 ± 0.76. With GDVQLRGMHESPYSPPSQGR, the amyloid nucleation score was -0.127 ± 0.49.

With GEAFRKDPLRCYMFQGIIEQ, the amyloid nucleation score worked out at 2.1 ± 0.14.

Turning to GEDCWRPPVR, the amyloid nucleation score was determined as 0.559 ± 0.5.

In turn, GEHSGTHNFKCFVSIIRLSR registered an amyloid nucleation score of 0.305 ± 1. The substance GEISIGMNLTGEKTSSSGFK had an amyloid nucleation score of -0.679 ± 1.1. Substance GENKDYWGHGYVSLACNRQG registered an amyloid nucleation score of 0.492 ± 0.38. For GETVHREYLAGWMALSSRRR the value was 2.47 ± 0.094; for GEYGCHHVCLVQGLFGI, -0.164 ± 0.42; for GFALYFCSEFMVSVCRCKHT, 9.613 ± 0.065.

Take GFCQASSWM: the amyloid nucleation score is -0.109 ± 0.76. Under GFDGLRVLLNEHNVIAK stands 0.771 ± 0.47; under GFLELCMFKVFFQRCARTIS, -1.04 ± 1.1. For GFPVWNVYLKSNGHVCDGLG the value was 1.31 ± 0.15; for GFRNCWKWPHWVLAPMLYNS, 0.007 ± 1.1. Under GFRVVCHILALCRYGTCLEI stands -0.608 ± 0.35; under GFSTRYVFTSLYLKYFNRVY, -0.476 ± 0.64.

Turning to GFSWDNESFLCELKMGCLTG, the amyloid nucleation score was -0.646 ± 0.31.

Take GFVLILTAIYVVGCINICAM: the amyloid nucleation score came to 5.66 ± 0.064. For GFVMSYGRGLLS the value was 0.29 ± 0.42; for GFVPGIMEF, 0.808 ± 0.52; for GFYGLTVSSTEYKWSMIQIR, 1.88 ± 0.077. Consider GFYIPRRAFS, for which the amyloid nucleation score was -1.13 ± 0.25. For GGISKIFVWEVSIVHYSNIS the value was “inactive”.

As for GGLCYEQNFYRYKKRRVLEL, the amyloid nucleation score was found to be 3.47 ± 0.12.

Turning to GGNLGRPEKALSRRCCVDYL, the amyloid nucleation score entry was “inactive”.

For GGSKTRLFL, the amyloid nucleation score is -0.263 ± 1.1. Regarding GGTLHWLAMDTNMVNMACIG, the amyloid nucleation score entry is “inactive”. Under GGTVEARSKGILSLSGW stands “inactive”; under GHAHLCSMYVVSIRLHLSMV, 5.59 ± 0.081; under GHCFISEFLGRRVA, 2.36 ± 0.08.

As for GHGFFLTTMSSGNNTDRNSG, the amyloid nucleation score was -1.22 ± 1.1. Under GHNTYGYQRMRGCDV stands 1.3 ± 0.38; under GHTPCPHNVVRTHVLSWHGL, 7.021 ± 0.042. As to GHVDCWYGRVTALGQAKYE, the amyloid nucleation score is 0.344 ± 0.26. GHVQSWGCVVLHEFSSISPE: the amyloid nucleation score turned out to be 5.488 ± 0.05. Under GICKALARYYFSIYDWQVTE stands 0.049 ± 1.1; under GICTWNFV, “inactive”.

In the case of GIGSQMWFT, the amyloid nucleation score stood at 3.41 ± 0.053. Under GIMGDGGGHALWTEEELKVR stands 1.01 ± 0.23. The substance GINVCFKHTMV showed an amyloid nucleation score of 3.28 ± 0.062. On to GIPCGGMFCRIGS, for which the amyloid nucleation score was determined as 0.524 ± 0.81.

With GIRAVVL, the amyloid nucleation score was 0.374 ± 0.18. For the substance GIRLGSNDQSVYSRPNV, the amyloid nucleation score was 1.46 ± 0.35.

In turn, GKCMV gave an amyloid nucleation score of 4.02 ± 0.095. GKDGKLTSMAHSYHDYVMRR had an amyloid nucleation score of 0.129 ± 0.26. Consider GKEIRNNITMCGYLMQNICD, for which the amyloid nucleation score was determined as 2.85 ± 0.17.

Turning to GKPTFFMG, the amyloid nucleation score amounted to 0.6 ± 0.74.

In the case of GKVRRIIWLSCKNG, the amyloid nucleation score stood at 1.05 ± 0.54. GLESFGDYSVKIPLGDLFGP came in with an amyloid nucleation score of -0.025 ± 0.3. For GLGYLMINYMRISWWAMYCA the value was 0.235 ± 0.61. GLISIAVSRRVYLFCLVAPV returned an amyloid nucleation score of -0.541 ± 0.79. The substance GLKNRVWL had an amyloid nucleation score of 1.05 ± 0.26.

Turning to GLLGKTASTYAVRVWGIGVG, the amyloid nucleation score was 1.03 ± 0.2. With GLLGWMGAYGANPCYPTTLF, the amyloid nucleation score worked out at 0.515 ± 0.8. Under GLMTYFSSVESGEHTDRNLS stands -0.732 ± 0.33; under GLNISPRMYCF, 0.002 ± 0.28; under GLPYVSMINLHASYTERMVW, -0.687 ± 0.64.

For GLRLFKMKDFC, the amyloid nucleation score was 2.14 ± 0.21. On to GLRWNKFYKCTEVCMCRGSS, for which the amyloid nucleation score amounted to 2.58 ± 0.15.

Turning to GLSAKNH, the amyloid nucleation score was 0.279 ± 0.39. For GLSAMDDRMVPRIIYWIRLW the value was -0.217 ± 0.36; for GLWLGWNLYVNKFV, 0.385 ± 0.33.

Substance GLWVV gave an amyloid nucleation score of -1.02 ± 1.1.

GLYRGTLVYKTYVLGNNKPL: the amyloid nucleation score was -1.33 ± 1.1. Under GMCLTGSTSVRTNNSPHVSR stands 0.803 ± 0.32; under GMGIHFKASGRGPLIVGERD, 0.75 ± 0.44. For GMIRLLGLFIKKRWRSNTCL, the amyloid nucleation score was -0.238 ± 0.5. Under GMIVLRCSRSCWFVQTKADG stands 1.27 ± 0.48; under GMLMIVGARSRDVPYYGRCD, 0.004 ± 1.1; under GMNFHRGLMLNGVCIFSLLW, 0.491 ± 0.38. As for GMNRL, the amyloid nucleation score is -0.869 ± 0.55. GMTVNYRRMVQNQRMFGPGI displayed an amyloid nucleation score of -0.42 ± 0.37. For the substance GMVNIYDLCYMLLY, the amyloid nucleation score is -1.21 ± 0.31. GNHSAVAPS: the amyloid nucleation score is -0.677 ± 0.38. For GNKCLSWVES the value was -0.12 ± 0.23. For GNLSNSQTIWFRSNTAISLN the value was 1.98 ± 0.14; for GNNFIF, “inactive”. Under GNNRAY stands -0.117 ± 0.74; under GNPTESG, 0.148 ± 0.29. GNRLWFGTIVRHLIYEVYVR gave an amyloid nucleation score of 0.665 ± 0.36.

GNRVYGDYCFYTTMGWASW returned an amyloid nucleation score of -0.379 ± 0.55.

On to GNYFPYFQVWSISRFLMSIS, for which the amyloid nucleation score entry is “inactive”. For GNYVSTFFKCRILYRMNLMF the value was -0.121 ± 1.1; for GPCGVVVNFHRSCFCRFEFL, 7.61 ± 0.082. For GPCMMEGLIYREMSAGYTTV the value was 0.416 ± 0.49; for GPLFHTTRLRDNHM, 3.11 ± 0.11. On to GPTNVIRTISRDTTIV, for which the amyloid nucleation score is -0.646 ± 0.39. GPTRSYRLAASGAGEGCKTW showed an amyloid nucleation score of 2.09 ± 0.1. For GQTIL the value was “inactive”; for GQYLVSKFGIEHTA, 0.307 ± 0.17; for GRAYHESLSGDFVLFSSRRC, -0.815 ± 0.63.

As for GRCTRERW, the amyloid nucleation score worked out at 0.123 ± 0.32. For GRESKVWIPFTGALF the value was -1.04 ± 1.1. For GRFDSRAFTDDMTKIPMYYL the value was 0.045 ± 0.36; for GRLYHGVVTCSGRNGINRGS, 2.92 ± 0.19.

GRNVMTKAPYCTCWANVLHS had an amyloid nucleation score of 6.67 ± 0.075. Under GRSEVRFMTMLMLCKKCACL stands 5.547 ± 0.034. Under GRSGVLLQRGGFVKNSRCEK stands 0.026 ± 1.1; under GRYNVDFKSIMRYIECGKTA, -0.27 ± 1.1.

Substance GSAGNYRRY returned an amyloid nucleation score of 0.167 ± 0.56.

As for GSARCNTSFCCQQVYFYGCG, the amyloid nucleation score amounted to 8.486 ± 0.064. Regarding GSCVIM, the amyloid nucleation score was determined as 1.36 ± 0.67.

Substance GSFENSTRTYVSIIRR yielded an amyloid nucleation score of 4.73 ± 0.045. For GSFLFYCILPIYFLGAWMRV the value was -1.4 ± 0.78; for GSLTDLFGWDESCFRCTALC, 3.79 ± 0.092. Under GSMVLPIICNKIAYRSCSTI stands -0.828 ± 0.56; under GSPIESGVFNANLWPYDAYG, -0.216 ± 0.41. Under GSQGFPRRFSPSMPM stands 0.886 ± 0.8. GSQVLCGLRLPARGFWSYIM had an amyloid nucleation score of 0.254 ± 0.3. For GSRDDSTVLVRKSSCRVEGS the value was 0.665 ± 0.37; for GSRGMVFQMFT, 0.94 ± 0.48; for GSRVALLNMGGK, -0.512 ± 0.79.

Turning to GSRYLIGVEYE, the amyloid nucleation score amounted to 0.319 ± 0.56. For GSSAYITLLHYEILNLRLLC the value was 4.12 ± 0.079. Under GSSVEMQLCELTSGGFDLSL stands 0.228 ± 0.32; under GSWLIEMCEVVSNSMTSMGP, 1.29 ± 0.3; under GSYCQWIYF, 1.99 ± 0.22.

For the substance GSYMS, the amyloid nucleation score came to 3.54 ± 0.065. For GSYYCIDVGASRRPVWILSA the value was 0.855 ± 0.48; for GTGIHLLLLVGSGDSSREMM, -1.08 ± 0.36; for GTGINLSFLYFAAGVLCSSS, -1.52 ± 1.1. Under GTGMTYAIWLSGIGRMRFYY stands -0.816 ± 0.33; under GTLPYFKN, -0.641 ± 0.74.

For the substance GTRGVVLISMSWRVDLHWKP, the amyloid nucleation score entry was “inactive”.

Substance GTRSGSSDV showed an amyloid nucleation score of 0.31 ± 0.5. As for GTRYDT, the amyloid nucleation score is 0.468 ± 0.32.
